The values below come from publication PMC7691336.

Values joined by “and” are separate entries in the source; they are usually repeats but may differ in a detail not shown here. Identical values can stand only once.

Assay [1] has as its target cardiac ryanodine receptor (RyR2) V3599K, knock-in mouse heart (mouse (endogenous in cardiac homogenates)) (UniProt E9Q401). In words: cross-linking; CaM-SANPAH at rising concentrations (to 1024 nM; also 3000) mixed with mouse cardiac homogenates (1 mg/mL) in 150 mmol/L KCl, 10 umol/L CaCl2, 20 mmol/L MES pH 6.8; 10 min binding, UV cross-linking, anti-CaM blot of the 550 kDa band; binding as ratio to the maximum; one Kd for each heart; hearts of sham-operated mice.

Assay [2] has as its target cardiac ryanodine receptor (RyR2), wild type, mouse heart (mouse (endogenous in cardiac homogenates)) (UniProt E9Q401). The description is as above.
The target in assay [3] is cardiac ryanodine receptor (RyR2) V3599K, knock-in mouse heart (mouse (endogenous in cardiac homogenates)) (UniProt E9Q401). Nature of the assay: cross-linking; CaM-SANPAH at rising concentrations (to 1024 nM; also 3000) mixed with mouse cardiac homogenates (1 mg/mL) in 150 mmol/L KCl, 10 umol/L CaCl2, 20 mmol/L MES pH 6.8; 10 min binding, UV cross-linking, anti-CaM blot of the 550 kDa band; binding as ratio to the maximum; one Kd for each heart; hearts 2 weeks after transverse aortic constriction (TAC 2W).

Assay [4] has as its target cardiac ryanodine receptor (RyR2), wild type, mouse heart (mouse (endogenous in cardiac homogenates)) (UniProt E9Q401). Described as above.

“CaM-SANPAH conjugate (recombinant calmodulin) (from UniProt P0DP23 1-149) (natural protein)”: the equilibrium dissociation constant (Kd) is 47.4 nM and 51.6 nM (2×) and 74.2 nM in assay [1]; 61.4 nM and 66.9 nM and 54.7 nM (2×) in assay [2]; 55.9 nM and 44.2 nM and 82.9 nM in assay [3]; 118 nM and 151 nM and 139 nM in assay [4].

Usually Kd stands for a measure of binding affinity in units of concentration.
